Measurements published in paper PMC4063868.

Target: histones (chicken (endogenous in LMH))
Assay: high-salt co-extraction with histones from chromatin; LMH cells 48 h post-transfection; chromatin pelleted and incubated in 50 mM Tris-HCl pH 8.0, 2.5 M NaCl, 0,05% NP40 for 30 min at 4°C; supernatant (histones fraction) on 10% SDS-PAGE, colloidal coomassie blue and immunoblot with anti-VP22 L13a

Question: For “VP22 of Marek's disease virus tagged with eGFP at its C-terminus (natural protein)”, which fold less VP22 in the histone extract than from peGFP-UL49 cells is on record?
Answer: 4.5 fold
